Key:
[1] = molecular target: recombinant LAL2 (rLAL2) protein (Lampetra japonica); experiment: SPR; rLAL2 coupled to a CM5 chip (NHS/EDC, buffer pH 4.0, blocked with ethanolamine); LIP as analyte at different concentrations in HBS-EP; Biacore T200; affinity kinetics fitting
[2] = molecular target: natural LAL2 protein (Lampetra japonica); experiment: SDS-PAGE and western blot band identified by LC-MS/MS; lamprey serum on 12% SDS-PAGE, blot with rabbit anti-LAL2 antibody; band around 40 kDa analysed by LC-MS/MS of tryptic peptides
[3] = molecular target: lamprey immune protein (LIP) (Lampetra japonica); experiment: SPR; LIP coupled to a CM5 chip (NHS/EDC, buffer pH 4.0, blocked with ethanolamine); analyte (rLAL2 or TRX) at different concentrations in HBS-EP; Biacore T200; affinity kinetics fitting

## lamprey immune protein (LIP) (natural protein)
[1]
  Kd: 21.1 nM

## natural LAL2 protein (natural protein)
[2]
  stoichiometry N: 2

## recombinant LAL2 (rLAL2) protein (natural protein)
[3]
  Kd: 55.8 nM
